Target: T1, CBL (47-357) S226E (UniProt P22681 47-357)
T1 construct: range 47-357; Point mutant within Duet-His-Δlinker-hSLAP2-CBL; also called S226E (CBL mutant)
T1 sequence (looked up): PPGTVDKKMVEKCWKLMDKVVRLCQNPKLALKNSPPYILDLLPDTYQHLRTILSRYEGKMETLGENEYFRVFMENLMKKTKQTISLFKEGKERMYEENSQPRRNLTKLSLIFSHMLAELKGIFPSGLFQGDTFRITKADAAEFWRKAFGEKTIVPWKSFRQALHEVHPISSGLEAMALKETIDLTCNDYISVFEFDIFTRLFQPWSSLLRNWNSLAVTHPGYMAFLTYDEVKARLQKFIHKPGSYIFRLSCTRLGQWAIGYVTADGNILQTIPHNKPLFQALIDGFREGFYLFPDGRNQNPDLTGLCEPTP
Test: Ni-NTA co-purification from Duet co-expression, high salt (0.5 M NaCl), Coomassie SDS-PAGE
Protocol: Cell pellets were resuspended in either high or low salt (as for high salt except 25 mM HEPEs pH 7.5, 150 mM NaCl) lysis buffer and purified as above on Ni-NTA agarose (Qiagen) with wash buffer (25 mM HEPEs pH 7.5, 150 mM NaCl, 2% glycerol, 20 mM imidazole, 10 mM βME). Bead slurry was mixed with SDS 2X loading buffer (125 mM Tris pH 6.8, 4% SDS, 20% glycerol, 0.715 M βME, bromophenol blue), boiled, and analyzed by 10 or 12.5% SDS-PAGE, stained with Coomassie blue.

B1: Trx-His(6)-Δlinker-hSLAP2 (human SLAP2 29-261) (other)
chain: EAERSKATAVALGSFPAGGPAELSLRLGEPLTIVSEDGDWWTVLSEVSGREYNIPSVHVAKVSHGWLYEGLSREKAEELLLLPGNPGGAFLIRESQTRRGSYSLSVRLSRPASWDRIRHYRIHCLDNGWLYISPRLTFPSLQALVDHYSELADDICCLLKEPCVLQRAGPLPGKDIPLPVTVQRTPLNWKELDSSLLFSEAATGEESLLSEGLRESLSFYISLNDEAVSLDDA
notes: also called Trx-His-SLAP2; SLAP2 WT; not shown: N-terminal thioredoxin (Trx)-His(6)-TEV-site tag and linker of the modified pET32a (Δlinker version)
binding result: no binding

— patent US20230212239A1, “INHIBITORS OF CBL AUTOINHIBITION AND RELATED METHODS” (THE HOSPITAL FOR SICK CHILDREN, priority 2020, published 2023)
